Our source for the Kd values is publication PMC2917185.

The target of test [1] is T1, LHCP (light-harvesting chlorophyll a/b binding protein), fluorescein-labeled, P07371. Nature of the test: fluorescence polarisation. As to conditions: remark: other sources report otherwise.
The target of test [2] is T1, LHCP (light-harvesting chlorophyll a/b …). Nature of the test: fluorescence polarisation. As to conditions: remark: other sources report otherwise. The source holds these as a separate data set.

B1: cpSRP43 (mature), O22265 57-373 (natural protein)
chain: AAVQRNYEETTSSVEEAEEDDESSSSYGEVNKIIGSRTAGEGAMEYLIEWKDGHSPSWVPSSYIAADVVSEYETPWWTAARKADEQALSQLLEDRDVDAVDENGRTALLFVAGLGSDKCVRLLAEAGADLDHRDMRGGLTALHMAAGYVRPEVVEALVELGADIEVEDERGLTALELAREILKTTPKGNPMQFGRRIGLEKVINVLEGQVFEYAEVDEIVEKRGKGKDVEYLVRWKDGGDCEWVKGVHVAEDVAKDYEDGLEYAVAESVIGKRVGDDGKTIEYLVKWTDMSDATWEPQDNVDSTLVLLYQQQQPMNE
With B1, the figures for the Kd in test [1] and in test [2] were 138 nM and 296 nM, respectively.
